Measurements: patent US10494415B2, “Insulin-like growth factor 2 (IGF2) binding agents” (Cancer Research Technology Limited, priority 2015, dated 2019)

The molecules below were run against IGF2 (Homo sapiens, UniProt P01344) (assay: SPR (Biacore T200) of recombinant IGF2R domain 11 mutants on immobilised biotinylated IGF2). Settings: Table 1; 25° C., HBS-EP pH 7.4.
Assay type: binding
Parameters: purchased GroPep
Text: Surface plasmon resonance (SPR) binding analysis of recombinant M6P/IGF2R domain 11 mutants interaction with IGF2. Kon indicates association (on) rate; koff, dissociation (off) rate; RU, response units. Binding to IGF2 assessed with BIAcore T200 using purified biotinylated IGF2 and IGF1 on a streptavidin biosensor chip. Recombinant proteins were expressed either in E. coli and/or P. pastoris. All the mutants in the FG and CD loops are on the domain 11^AB5 background for the AB loop unless otherwise stated. All experiments were carried out at 25° C. in HBS-EP buffer (pH 7.4), were repeated 2-5 times on two independent BIAcore chips. nd=not determined. Data for KD expressed as mean of each experiment, and means of kon and koff are shown.
Measurements were carried out at 25° C. in HBS-EP buffer (pH 7.4) (nd=not determined, np=no protein). Data for KD expressed as mean of each experiment, and means of kon and koff are shown.
Measurements were carried out at 25° C. in MES-EP buffer, 20 mM MES pH 6.5, 150 mM NaCl, 3 mM EDTA, and 0.005% (v/v) surfactant P20). Data for KD expressed as mean of each experiment, and means of kon and koff are shown.
Final kinetic analysis of mutants by SPR was conducted using a Biacore T200 biosensor at 25° C. in either HBS-EP (10 mM HEPES pH 7.4, 150 mM NaCl, 3 mM EDTA, and 0.005% (v/v) surfactant P20) or MES-EP (20 mM MES pH 6.5, 150 mM NaCl, 3 mM EDTA, and 0.005% (v/v) surfactant P20) at a flow-rate of 40 μL min^−1. […] For the analysis of the Fc-domain 11^AB5 interaction, approximately 50 RU of a biotinylated IGF2:biotinylated ubiquitin mixture (1:8 proportion) was immobilized on the CM5-streptavidin chip. This interaction was also analysed by immobilizing the Fc-domain 11^AB5 and Fc-domain 11^AB5-RHH (or Fc-domain 11^I1572A as control) by Human Antibody Capture (monoclonal mouse anti-human IgG antibody immobilised on a CM5 chip by amine coupling, GE Healthcare) with and without human IgG1 Fc fragment (Bethyl Laboratories, UK) in the control flow cell. Increasing concentrations of IGF2^1-67, proIGF2^1-104, proIGF2^1-156 and IGF1 ranging from 0.125 to 32 nM were injected. T200 BiaEvaluation software (GE Healthcare) was used to fit the resulting curves according to a 1:1 binding model. Steady state affinities were determined using the kinetic data, taking the response average at 5 seconds before injection end and for 5 seconds average. Thermodynamic data was performed across the temperature range of 10° C. to 30° C., van't Hoff and Erying plots generated and ΔH, −TΔS and ΔG values determined as previously described.

Sequence of IGF2 (P01344 25-91): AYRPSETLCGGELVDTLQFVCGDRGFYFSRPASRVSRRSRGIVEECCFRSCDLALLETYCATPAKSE

Molecule | Kinetics koff | Kinetics kon
S1602N: domain 11 AB5 background + FG loop S1602N (protein) MKSNEHDDCQVTNPSTGHLFDLSSLSGRAGFTAAYAKGWGVYMSICGENENCPPGVGACFGQTRISVGKANKRLRYVDQVLQLVYKDGSPCPSKNGLSYKSVISFVCRPEAGPTNRPMLISLDKQTCTLFFSWHTPLACEQATECSV | 0.0112 s⁻¹ | 2.38e+06 M⁻¹ s⁻¹
S1602Q: domain 11 AB5 background + FG loop S1602Q (protein) MKSNEHDDCQVTNPSTGHLFDLSSLSGRAGFTAAYAKGWGVYMSICGENENCPPGVGACFGQTRISVGKANKRLRYVDQVLQLVYKDGSPCPSKQGLSYKSVISFVCRPEAGPTNRPMLISLDKQTCTLFFSWHTPLACEQATECSV | 0.0191 s⁻¹ | 5.88e+06 M⁻¹ s⁻¹
G1603A: domain 11 AB5 background + FG loop G1603A (protein) MKSNEHDDCQVTNPSTGHLFDLSSLSGRAGFTAAYAKGWGVYMSICGENENCPPGVGACFGQTRISVGKANKRLRYVDQVLQLVYKDGSPCPSKSALSYKSVISFVCRPEAGPTNRPMLISLDKQTCTLFFSWHTPLACEQATECSV | 0.0183 s⁻¹ | 2.14e+06 M⁻¹ s⁻¹
G1603K: domain 11 AB5 background + FG loop G1603K (protein) MKSNEHDDCQVTNPSTGHLFDLSSLSGRAGFTAAYAKGWGVYMSICGENENCPPGVGACFGQTRISVGKANKRLRYVDQVLQLVYKDGSPCPSKSKLSYKSVISFVCRPEAGPTNRPMLISLDKQTCTLFFSWHTPLACEQATECSV | 0.0121 s⁻¹ | 4.66e+06 M⁻¹ s⁻¹
L1604A: domain 11 AB5 background + FG loop L1604A (protein) MKSNEHDDCQVTNPSTGHLFDLSSLSGRAGFTAAYAKGWGVYMSICGENENCPPGVGACFGQTRISVGKANKRLRYVDQVLQLVYKDGSPCPSKSGASYKSVISFVCRPEAGPTNRPMLISLDKQTCTLFFSWHTPLACEQATECSV | 0.0397 s⁻¹ | 790000 M⁻¹ s⁻¹
K1631R: domain 11 HI loop mutant K1631R, probably AB5 background (protein) MKSNEHDDCQVTNPSTGHLFDLSSLSGRAGFTAAYAKGWGVYMSICGENENCPPGVGACFGQTRISVGKANKRLRYVDQVLQLVYKDGSPCPSKSGLSYKSVISFVCRPEAGPTNRPMLISLDRQTCTLFFSWHTPLACEQATECSV | 0.0867 s⁻¹ | 7.18e+06 M⁻¹ s⁻¹
K1631E: domain 11 HI loop mutant K1631E, probably AB5 background (protein) MKSNEHDDCQVTNPSTGHLFDLSSLSGRAGFTAAYAKGWGVYMSICGENENCPPGVGACFGQTRISVGKANKRLRYVDQVLQLVYKDGSPCPSKSGLSYKSVISFVCRPEAGPTNRPMLISLDEQTCTLFFSWHTPLACEQATECSV | >0.1 s⁻¹ | –
Q1632A: domain 11 HI loop mutant Q1632A, probably AB5 background (protein) MKSNEHDDCQVTNPSTGHLFDLSSLSGRAGFTAAYAKGWGVYMSICGENENCPPGVGACFGQTRISVGKANKRLRYVDQVLQLVYKDGSPCPSKSGLSYKSVISFVCRPEAGPTNRPMLISLDKATCTLFFSWHTPLACEQATECSV | 0.0167 s⁻¹ | 4.5e+06 M⁻¹ s⁻¹
Q1632K: domain 11 HI loop mutant Q1632K, probably AB5 background (protein) MKSNEHDDCQVTNPSTGHLFDLSSLSGRAGFTAAYAKGWGVYMSICGENENCPPGVGACFGQTRISVGKANKRLRYVDQVLQLVYKDGSPCPSKSGLSYKSVISFVCRPEAGPTNRPMLISLDKKTCTLFFSWHTPLACEQATECSV | 0.0212 s⁻¹ | 1.96e+06 M⁻¹ s⁻¹
Q1632E: domain 11 HI loop mutant Q1632E, probably AB5 background (protein) MKSNEHDDCQVTNPSTGHLFDLSSLSGRAGFTAAYAKGWGVYMSICGENENCPPGVGACFGQTRISVGKANKRLRYVDQVLQLVYKDGSPCPSKSGLSYKSVISFVCRPEAGPTNRPMLISLDKETCTLFFSWHTPLACEQATECSV | 0.0202 s⁻¹ | 520000 M⁻¹ s⁻¹
Q1632L: domain 11 HI loop mutant Q1632L, probably AB5 background (protein) MKSNEHDDCQVTNPSTGHLFDLSSLSGRAGFTAAYAKGWGVYMSICGENENCPPGVGACFGQTRISVGKANKRLRYVDQVLQLVYKDGSPCPSKSGLSYKSVISFVCRPEAGPTNRPMLISLDKLTCTLFFSWHTPLACEQATECSV | 0.0175 s⁻¹ | 3.18e+06 M⁻¹ s⁻¹
T1633A: domain 11 HI loop mutant T1633A, probably AB5 background (protein) MKSNEHDDCQVTNPSTGHLFDLSSLSGRAGFTAAYAKGWGVYMSICGENENCPPGVGACFGQTRISVGKANKRLRYVDQVLQLVYKDGSPCPSKSGLSYKSVISFVCRPEAGPTNRPMLISLDKQACTLFFSWHTPLACEQATECSV | 0.0196 s⁻¹ | 800000 M⁻¹ s⁻¹
W1546F: domain 11 AB5 with W1546F in the AB loop (protein) MKSNEHDDCQVTNPSTGHLFDLSSLSGRAGFTAAYAKGFGVYMSICGENENCPPGVGACFGQTRISVGKANKRLRYVDQVLQLVYKDGSPCPSKSGLSYKSVISFVCRPEAGPTNRPMLISLDKQTCTLFFSWHTPLACEQATECSV | 0.0180 s⁻¹ | 4.5e+06 M⁻¹ s⁻¹

Same assay, conditions: Table 2

Molecule | Kinetics koff | Kinetics kon
WT + 23D (HI-HFQS): wild-type domain 11 with HI loop 1630-1633 HFQS (clone 23D) (protein) MKSNEHDDCQVTNPSTGHLFDLSSLSGRAGFTAAYSEKGLVYMSICGENENCPPGVGACFGQTRISVGKANKRLRYVDQVLQLVYKDGSPCPSKSGLSYKSVISFVCRPEAGPTNRPMLISLHFQSCTLFFSWHTPLACEQATECSV | 0.065 s⁻¹ | 250000 M⁻¹ s⁻¹
WT + 26C (HI-DMQT): wild-type domain 11 with HI loop DMQT (clone 26C) (protein) MKSNEHDDCQVTNPSTGHLFDLSSLSGRAGFTAAYSEKGLVYMSICGENENCPPGVGACFGQTRISVGKANKRLRYVDQVLQLVYKDGSPCPSKSGLSYKSVISFVCRPEAGPTNRPMLISLDMQTCTLFFSWHTPLACEQATECSV | 0.24 s⁻¹ | 1.89e+06 M⁻¹ s⁻¹
WT + 27G (HI-NMAL): wild-type domain 11 with HI loop NMAL (clone 27G) (protein) MKSNEHDDCQVTNPSTGHLFDLSSLSGRAGFTAAYSEKGLVYMSICGENENCPPGVGACFGQTRISVGKANKRLRYVDQVLQLVYKDGSPCPSKSGLSYKSVISFVCRPEAGPTNRPMLISLNMALCTLFFSWHTPLACEQATECSV | 0.25 s⁻¹ | 2e+06 M⁻¹ s⁻¹
WT + 312G (HI-VKLM): wild-type domain 11 with HI loop VKLM (clone 312G) (protein) MKSNEHDDCQVTNPSTGHLFDLSSLSGRAGFTAAYSEKGLVYMSICGENENCPPGVGACFGQTRISVGKANKRLRYVDQVLQLVYKDGSPCPSKSGLSYKSVISFVCRPEAGPTNRPMLISLVKLMCTLFFSWHTPLACEQATECSV | 0.15 s⁻¹ | 1.07e+06 M⁻¹ s⁻¹
